According to article PMC3901395, “Multivalent interactions of the SUMO-interaction motifs in RING finger protein 4 determine the specificity for chains of the SUMO” (Biochemical Journal, 2013):

Target: T1, mono-SUMO2 (UniProt P61956 12-93)
T1 construct: SUMO2-ΔN11 monomer (first 11 residues missing) ending with the C-terminal GG motif and a stop codon; The methods describe the monomers from the pGEX-4T2 plasmids as ΔN11; also called SUMO2-ΔN11 monomer; source: E. coli Rosetta 2(DE3)pLysS, purified (glutathione beads, thrombin cleavage, anion exchange, SEC)
Test: ITC; VP-ITC or ITC200; 25°C; ITC buffer (50 mM Tris/HCl, pH 7.5, 150 mM NaCl, 2 mM DTT, 5% glycerol); SUMOs titrated into a solution of the RNF4 construct or peptide (legends of Figures 1B, 2B); 20–30 injections up to 2–3-fold molar excess; values averaged from two to six titrations
Conditions: both partners purified

T1 sequence (P61956 12-93): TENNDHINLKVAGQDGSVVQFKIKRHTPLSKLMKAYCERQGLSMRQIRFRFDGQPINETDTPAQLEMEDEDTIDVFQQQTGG

B1: single PIAS1 peptide (peptide)
chain: KVEVIDLTIDSSSDEEEEEP
modifications: exact peptide ends are only in Figure 2A; limits set around the VIDLT core plus C-terminal acidic flank; termini unknown
In the case of B1, the Kd is reported as 16 µM.
